Source: patent US20160114035A1

Experiments:
Assay in all cases: binding to purified HLA
Conditions in all cases: chains peptide; modification not given
[1] = target: DRB1*0404
[2] = target: DRB1*0405
[3] = target: DRB1*0301
[4] = target: DRB5*0101
[5] = target: DRB1*0101
[6] = target: DRB1*1501
[7] = target: DRB1*0901
[8] = target: DRB1*1302
[9] = target: DRB1*0701
[10] = target: DRB1*1101
[11] = target: DRB1*0802
[12] = target: DRB1*0401
[13] = target: DRB4*0101

IC50 [1]: 0.79 nM
IC50 [2]: 32 nM
IC50 [3]: 289 nM
IC50 [4]: 19 nM
IC50 [5]: 4 nM
IC50 [6]: 37 nM
IC50 [7]: 50 nM
IC50 [8]: 367 nM
IC50 [9]: 97 nM
IC50 [10]: 9.1 nM
IC50 [11]: 9.5 nM
IC50 [12]: 1.4 nM
IC50 [13]: 447 nM
Binder: AKFVAAWTLKAAA [SEQ ID NO: 3]
